Results on eight proteins are retold here after patent US12534748B2, “Engineered beta-subunit of tryptophan synthase for production of non-canonical amino acids” (California Institute of Technology, priority 2015, dated 2026).

What is called Km is the substrate concentration at which the rate is half of its maximum.

Changes are numbered by the printed parent chain. Numbers in names are those of the source.

Substrate in data set [1]: c1ccc2[nH]ccc2c1
The experiment in a line: purified protein, by the assay type. Conditions: pH 8.0.

Substrate in data set [2]: c1ccc2[nH]ccc2c1
The experiment in a line: Tryptophan formation from L-serine and indole, kinetics of wild-type PfTrpB. The settings on record: other: 75° C., pH 8.0. The data set is classed as biochemical, Pyrococcus furiosus. Here is the method: (§1) Cloning, Expression, and Purification of PfTrpA and PfTrpB. The genes encoding PfTrpB (UNIPROT ID Q8U093) and PfTrpA (UNIPROT ID Q8U094) were obtained as gBlocks and cloned into pET22(b)+ for expression in E. coli BL21 E. cloni EXPRESS cells (Lucigen). Heterologous protein expression of PfTrpA and PfTrpB was performed in Terrific Broth with 100 μg/mL ampicillin (TBamp) and induced with 500 mM IPTG (final concentration 1 mM). PfTrpB was purified via a HisTrap HP column. PfTrpA was purified via a Q HP HiTrap column (flow-through), followed by ammonium sulfate precipitation, and hydrophobic interaction chromatography on a phenyl Sepharose HP HiTrap column (FIG. 3).
(§2) Kinetics and UV-Vis Spectroscopy. Data were collected between 550 and 250 nm on a UV1800 Shimadzu spectrophotometer (Shimadzu) using 0.25-20 μM of enzyme in 200 mM potassium phosphate (pH 8.0) in a quartz cuvette. Samples were incubated at 75° C. for >3 min to ensure a stable temperature was reached. PfTrpB activity (kcat) was measured by monitoring tryptophan formation at 290 nm using Δe290=1.89 mM^−1·cm^−1.
(§3) Selection of the Parent Enzyme, TrpB, from Pyrococcus furiosus. […]

Substrate in data set [3]: N[C@@H](CO)C(=O)O
The description is as above. The data set is classed as biochemical, Pyrococcus furiosus. The settings on record: other: 75° C., pH 8.0. Here is the method:
as §1, §2, §3

Substrate in data set [4]: N[C@@H](CO)C(=O)O
Briefly: Tryptophan formation from L-serine and indole, kinetics of PfTrpB^2G9. The data set is classed as biochemical, Pyrococcus furiosus. Conditions: other: 75° C., pH 8.0.

Substrate in data set [5]: N[C@@H](CO)C(=O)O
The experiment in a line: Tryptophan formation from L-serine and indole, kinetics of PfTrpS complex. The class given is biochemical, Pyrococcus furiosus. The settings on record: other: 75° C., pH 8.0.

Substrate in data set [6]: N[C@@H](CO)C(=O)O
The experiment in a line: Tryptophan formation from L-serine and indole, kinetics of PfTrpB^4D11. The data set is classed as biochemical, Pyrococcus furiosus. The settings on record: other: 75° C., pH 8.0.

Substrate in data set [7]: N[C@@H](CO)C(=O)O
The experiment in a line: purified protein, by the assay type. Conditions: other: 75° C., pH 8.0.

B1: Archaeoglobus fulgidus TrpB variant AfTrpB^0B2 (P25L, E30G, I80V, F285S, T303S, T332A), SEQ ID NO: 22 (Archaeoglobus fulgidus DSM 4304; … (protein)
chain: MRCWLENLSGGRKMKFGEFGGRFVLEVLIGPLEELEKAYDRFKDDEEFKARLEYYLKSYAGRPTPLYFAENLSRELGVKVYLKREDLLHGGAHKINNTIGQALLAKFMGKKRVIAETGAGQHGVATAMAAALLGLEAEIYMGAEDYERQKMNVFRMELLGAKVTAVESGSRTLKDAINEALRDWVESFEHTHYLIGSVVGPHPFPTIVRDFQAVIGKEARRQIIEAEGGMPDAIIACVGGGSNAMGIFHPFLNDDVRLIGVEAGGEGIESGRHSASLTAGSKGVSHGMLSYFLQDEEGMMLDSHSVSAGLDYPGVGPEHAYLKETGRCEYVAVNDEEALRAFKTLSKLEGIIPALESAHAIAYAMKMAEEMQRDDVLVVNLSGRGDKDMDIVRRRLALEHHHHHH
Take B1: the Km in data set [1] (other: 60° C.) was 4.8 µM.

B2: Thermotoga maritima TrpB variant TmTrpB^0B2 (P14L, P19G, I69V, L274S, T292S) (Thermotoga maritima MSB8; I69V/L274S/P14L/P19G/T292S) (protein)
chain: MKGYFGPYGGQYVLEILMGALEELEAAYEEIMKDESFWKEFNDLLRDYAGRPTPLYFARRLSEKYGARVYLKREDLLHTGAHKINNAIGQVLLAKKMGKTRIIAETGAGQHGVATATAAALFGMECVIYMGEEDTIRQKPNVERMKLLGAKVVPVKSGSRTLKDAINEALRDWITNLQTTYYVIGSVVGPHPYPIIVRNFQKVIGEETKKQILEKEGRLPDYIVACVGGGSNAAGIFYPFIDSGVKLIGVEAGGEGLETGKHAASLLKGKIGYSHGSKTFVLQDDWGQVQVSHSVSAGLDYSGVGPEHAYWRETGKVLYDAVTDEEALDAFIELSRLEGIIPALESSHALAYLKKINIKGKVVVVNLSGRGDKDLESVLNHPYVRERIRLEHHHHHH
As to B2, the Km in data set [1] (other: 75° C.) is 72 µM.

B3: Pyrococcus furiosus tryptophan synthase beta-subunit PfTrpB, wild type, SEQ ID NO: 2 (Pyrococcus furiosus DSM 3638) (protein)
chain: MWFGEFGGQYVPETLIEPLKELEKAYKRFKDDEEFNRQLNYYLKTWAGRPTPLYYAKRLTEKIGGAKIYLKREDLVHGGAHKTNNAIGQALLAKFMGKTRLIAETGAGQHGVATAMAGALLGMKVDIYMGAEDVERQKMNVFRMKLLGANVIPVNSGSRTLKDAINEALRDWVATFEYTHYLIGSVVGPHPYPTIVRDFQSVIGREAKAQILEAEGQLPDVIVACVGGGSNAMGIFYPFVNDKKVKLVGVEAGGKGLESGKHSASLNAGQVGVFHGMLSYFLQDEEGQIKPTHSIAPGLDYPGVGPEHAYLKKIQRAEYVTVTDEEALKAFHELSRTEGIIPALESAHAVAYAMKLAKEMSRDEIIIVNLSGRGDKDLDIVLKVSGNVLEHHHHHH
Take B3: the figures for the Km in data set [2] and in data set [3] were 77 ± 12 µM and 1200 ± 100 µM, respectively.

B4: Pyrococcus furiosus TrpB variant PfTrpB^2G9 (T292S), SEQ ID NO: 10 (Pyrococcus furiosus DSM 3638; T292S) (protein)
chain: B3 chain with T292S
Regarding B4, in data set [4], the Km turned out to be 840 µM.

B5: Pyrococcus furiosus TrpB variant M144T N166D (Table 6 prints N166T), SEQ ID NO: 20 (Pyrococcus furiosus DSM 3638; M144T/N166D) (protein)
chain: B3 chain with M144T, N166D
Consider B5, for which the Km in data set [1] (other: 75° C.) was 42 µM.

B6: Pyrococcus furiosus tryptophan synthase complex PfTrpS (PfTrpA + PfTrpB) (Pyrococcus furiosus DSM 3638) (protein)
chain: B3 chain
With B6, the Michaelis constant (Km) in data set [5] came to 600 µM.

B7: Pyrococcus furiosus TrpB variant PfTrpB^4D11 (E17G, I68V, T292S, F274S, T321A), SEQ ID NO: 16 (Pyrococcus furiosus DSM 3638; E17G/F274S/I68V/T292S/T321A) (protein)
chain: B3 chain with E17G, I68V, F274S, T292S, T321A
Turning to B7, the Km in data set [6] was 1200 µM.

B8: Pyrococcus furiosus TrpB variant PfTrpB^0B2 (P12L, E17G, I68V, T292S, F274S, T321A), SEQ ID NO: 12 (Pyrococcus furiosus DSM 3638; … (protein)
chain: B3 chain with P12L, E17G, I68V, F274S, T292S, T321A
As for B8, the Km amounted to 8.7 µM in data set [1] (other: 75° C.) and 700 µM in data set [7].
